Values quoted from earlier work as cited in PMC5605561.

Target: B2R (Homo sapiens) (UniProt P30411)
Chain of UniProt P30411 (P30411 whole entry): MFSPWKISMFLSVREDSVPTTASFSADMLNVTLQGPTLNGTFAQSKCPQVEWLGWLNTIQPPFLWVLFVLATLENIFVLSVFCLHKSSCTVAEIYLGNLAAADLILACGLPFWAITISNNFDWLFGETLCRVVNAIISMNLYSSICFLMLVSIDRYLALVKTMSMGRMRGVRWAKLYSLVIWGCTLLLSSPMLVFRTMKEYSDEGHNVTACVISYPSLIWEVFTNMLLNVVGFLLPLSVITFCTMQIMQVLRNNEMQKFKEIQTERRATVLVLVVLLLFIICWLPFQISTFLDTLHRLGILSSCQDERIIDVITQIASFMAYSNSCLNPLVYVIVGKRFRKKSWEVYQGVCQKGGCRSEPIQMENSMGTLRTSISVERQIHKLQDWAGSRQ

For “bradykinin bradykinin (from UniProt P01042)”, the Kd is listed as 10 nM.
